Reference: patent publication US20220412989A1, “COMPOSITIONS AND METHODS FOR DETECTING CELLS UNDERGOING FERROPTOSIS USING AN ANTIBODY” (THE TRUSTEES OF COLUMBIA UNIVERSITY IN THE CITY OF NEW YORK, priority 2020, published 2022)
Entries after “also recorded” stand apart in the source; their conditions may differ.

Key:
[1] = system: B cell lymphoma (SU-DHL-6) mouse xenograft tumor tissue; experiment: Staining of B cell lymphoma mouse xenograft tumor tissue sections; parameters: species or system human; conditions: 40 mg/kg IKE once daily IP 14 days
Protocol: Tumor tissues were fixed in 4% paraformaldehyde (PFA) for 24 h at 4° C. followed by washing with PBS three times. The tissues were perfused in 30% sucrose for 24 h at 4° C. for cryo-protection. The samples were embedded in OCT cryostat sectioning medium, and then moved directly into a cryostat. After equilibration of temperature, frozen tumor tissues were cut into 5 μm thick sections. Tissue sections were mounted on to poly-L-lysine coated slides by placing the cold sections onto warm slides. Slides were stored at −80° C. until staining. For staining, slides were warmed to room temperature followed by washing with PBS twice. A hydrophobic barrier pen was used to draw a circle on each slide. The slides were permeabilized with PBS with 0.4% Triton X-100 (PBT) twice before non-specific-binding blocking by incubating the sections with 10% goat serum (ThermoFisher 50197Z) for 30 min at room temperature. […] All images were captured on a Zeiss LSM 800 confocal microscope at Plan-Apochromat 63x/1.40 Oil DIC objective with constant laser intensity for all analyzed samples. The intensity above threshold of the fluorescent signal of the bound antibodies was analyzed using NIH ImageJ software (ImageJ, RRID:SCR_003070). Data were expressed as fold change comparing with the vehicle. […]

mouse TfR1 protein = target: T1, mouse TfR1 protein (Mus musculus, UniProt Q62351); experiment: Staining of mouse glioblastoma paraffin-embedded tissue
T1 construct: from tissue; host or cells: murine glioma grown from murine glioma cells injected into c57/B6 mouse brain
Protocol: All procedures were performed according to the Columbia University Medical Center Institutional Animal Care and Use Committee. Murine glioma cell lines were created from tumor bearing mice. These tumors were generated by injection of a PDGF-IRES-Cre retrovirus into the subcortical white matter of mice with floxed PTEN and/or p53 (Sonabend et al., 2013). After mice reached end stage, the tumors were dissociated and primary cell cultures were created. These cells harbored the specific mutations of the original tumors, and could be re-injected to form gliomas in c57/B6 mice with high fidelity. Briefly, mice between the ages of 6-8 weeks received 50,000 murine glioma cells through stereotactic injection after being anesthetized with a ketamine/xylazine cocktail (87.5 mg/12.5 mg w/w). After cessation of toe-pinch reflex, the scalp was shaved and cleaned with serial use of betadine and 70% ethanol swabs. An incision was made and the skull was exposed. A burr hole was created, 2 mm anterior, 2 mm lateral and 2 mm deep to the right of the bregma. The cells were injected into the subcortical white matter over a period of 3 minutes (0.333 μL/min). Once the injection ceased, the needle was left in place for 1 minute before being slowly withdrawn. After tumor developed, brains were harvested and fixed in 4% paraformaldehyde and embedded in paraffin. 5 micron sections were made for staining.

T1 sequence (Q62351 whole entry): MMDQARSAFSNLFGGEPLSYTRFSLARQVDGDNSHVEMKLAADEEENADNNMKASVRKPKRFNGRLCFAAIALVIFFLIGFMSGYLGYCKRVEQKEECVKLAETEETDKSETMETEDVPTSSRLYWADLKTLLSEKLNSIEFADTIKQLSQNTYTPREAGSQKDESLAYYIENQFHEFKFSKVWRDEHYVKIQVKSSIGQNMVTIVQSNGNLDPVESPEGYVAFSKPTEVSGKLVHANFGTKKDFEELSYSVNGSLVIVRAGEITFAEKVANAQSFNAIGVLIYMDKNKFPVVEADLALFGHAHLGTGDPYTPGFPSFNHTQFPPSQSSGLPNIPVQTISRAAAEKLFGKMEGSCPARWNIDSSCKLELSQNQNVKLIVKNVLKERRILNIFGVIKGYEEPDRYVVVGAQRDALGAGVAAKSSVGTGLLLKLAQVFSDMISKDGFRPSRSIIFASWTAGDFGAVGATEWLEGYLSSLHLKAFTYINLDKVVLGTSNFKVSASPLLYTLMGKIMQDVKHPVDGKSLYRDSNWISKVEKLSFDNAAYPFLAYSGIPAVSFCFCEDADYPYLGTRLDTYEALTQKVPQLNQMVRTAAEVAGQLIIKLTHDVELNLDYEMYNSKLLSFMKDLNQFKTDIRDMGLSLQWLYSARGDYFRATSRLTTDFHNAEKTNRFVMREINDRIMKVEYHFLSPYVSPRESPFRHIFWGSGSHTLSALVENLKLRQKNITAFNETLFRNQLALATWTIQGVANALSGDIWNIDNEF

recognition of TfR1 in mouse GBM tumor samples (mouse TfR1 protein): able to recognize mouse TfR1 protein
B1: 3F3-FMA: murine monoclonal IgG1 raised against ferroptotic membrane fractions; antigen is human transferrin receptor protein 1 (TfR1) (antibody, V domains shown)
VH: EVLLQQSGTELVRPGALVKLSCKASGFNIQDLYIHWVKQRPEQGLEWIGWIDPETDNTIYDPKFQGKASITADTSSNTAYLQLSSLTSEDTAMYYCSTGLLQWYFDVWGAGTAVTVSS
VL: DIVMTQSPSSLAMSIGQKVTMRCKSSQSLLNSYNQKNCLAWYQQKPGQSPKLLLYFVSTRESGVPDRFIGSGSGTDFTLTISSVQAEDLADYFCQQHYSTPLTFGAGTKLELK
staining intensity, IKE-treated vs vehicle samples [1]: did not detect its antigen; also recorded: no difference
